Test results as given in patent US20250197451A1 (CAPITAL MEDICAL UNIVERSITY SCHOOL OF STOMATOLOGY, published 2025).

Biological target: T1, biotin-labelled EZH2 protein (UniProt Q15910 1-746, limits assumed, biotin label (EZ-link NHS-PEO4-Biotinylation kit))
T1 construct: Probe in solution (1 ug/ml) on the KDM2B peptide microarray; also called NHS-PEO4-Biotinylation-labelled EZH2 protein; recombinant protein
Assay: KDM2B peptide array probed with biotin-EZH2 1 ug/ml, SA-HRP/ECL;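 also: Background-corrected optical density of each spot on the membrane, given as percent of the brightest spot (100%), color developed for 5 minutes; 100% is the highest background-corrected spot optical density on the membrane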
Experimental: After blocking, the polypeptide microarray was incubated with biotin-labeled target protein for hybridization, visualized with the chemical chromogenic substrate and imaged using a Chempchemi digital imager. The image of colored polypeptide microarray was analyzed for the optical density of the colored points. Particularly, the optical density of each colored point was calculated using the optical density of the respective surrounding background as a reference for background correction. The highest optical density value of the colored point on membrane was set to 100%, and the optical density value of the remaining colored points was converted into percentages relative to the highest value. The points with an optical density percentage of more than 30% on the polypeptide membrane and also with an optical density percentage of less than 30% on the negative membrane were defined as positive colored points.
For the hybridization experiment, a solution of NHS-PEO4-Biotinylation-labelled EZH2 protein (1 μg/ml) was used for the hybridization of the polypeptide microarray. Streptavidin-HRP was used to amplify the reaction signal according to the experimental procedure and conditions described above, and the time of color development was 5 minutes.

T1 sequence (Q15910 whole entry): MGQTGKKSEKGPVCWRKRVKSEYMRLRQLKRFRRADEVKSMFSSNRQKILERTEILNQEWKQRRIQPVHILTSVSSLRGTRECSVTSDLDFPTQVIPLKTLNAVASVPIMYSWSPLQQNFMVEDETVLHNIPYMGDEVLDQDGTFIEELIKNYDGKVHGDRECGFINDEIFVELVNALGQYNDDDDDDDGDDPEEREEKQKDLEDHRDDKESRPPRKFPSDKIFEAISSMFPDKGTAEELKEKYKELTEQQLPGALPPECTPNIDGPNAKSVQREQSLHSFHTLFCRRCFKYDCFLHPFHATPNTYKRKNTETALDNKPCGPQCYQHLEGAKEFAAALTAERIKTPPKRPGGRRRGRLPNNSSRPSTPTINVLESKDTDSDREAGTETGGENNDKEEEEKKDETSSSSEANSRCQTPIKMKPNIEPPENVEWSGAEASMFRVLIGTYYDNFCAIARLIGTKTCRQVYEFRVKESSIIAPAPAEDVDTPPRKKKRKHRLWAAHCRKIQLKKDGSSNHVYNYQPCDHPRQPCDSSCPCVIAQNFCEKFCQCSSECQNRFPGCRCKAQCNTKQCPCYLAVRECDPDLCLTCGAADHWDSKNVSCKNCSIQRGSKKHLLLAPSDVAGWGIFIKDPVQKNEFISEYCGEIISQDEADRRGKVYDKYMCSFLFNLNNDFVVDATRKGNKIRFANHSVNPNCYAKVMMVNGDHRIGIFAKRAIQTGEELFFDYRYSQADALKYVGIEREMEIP

| Binder | Intensity (%) |
| --- | --- |
| SQLYQGDFVHAMEGK [peptide 16] | 1.87% |
| KGKLGPASAVKLAAN [peptide 118] | 0% |
| RTECGECHFCKDMKK [peptide 125] | 1.57% |
| LSPWWRSSLTYFQQQ [peptide 169] | 0% |
| RTTAGARRRRTRCRK [peptide 121] | 1.31% |
| AVGRPKGKLGPASAV [peptide 117] | 0% |
| PPDGLLRRKSDDVHL [peptide 158] | 0% |
| DNKEGQEPAKRRSEC [peptide 152] | 97.8% |
| VEKLESLPENKKCVP [peptide 105] | 20.3% |
| RMKQSCIMRQCIAPV [peptide 129] | 9.37% |
| PQALLEGVKNVLKEH [peptide 109] | 0% |
| HSKKVPPDGLLRRKS [peptide 157] | 18.4% |
| LPHTAVCLVCGEAGK [peptide 132] | 100% |
| RKKRRSWKNAEDRMA [peptide 174] | 0.47% |
| GDFVHAMEGKDFNYE [peptide 17] | 0% |
| KIKESEGVVNDELPN [peptide 141] | 10.8% |
| ARRRRTRCRKCEACL [peptide 122] | 100% |
| PLGSSLSPWWRSSLT [peptide 168] | 0% |
| ECHFCKDMKKFGGPG [peptide 126] | 6.05% |
| GFKYASNLPGSLLKE [peptide 148] | 0% |
| DELPNCWECPKCNHA [peptide 143] | 0% |
| QKRGPGFKYASNLPG [peptide 147] | 0% |
| LKPGKEDKLFRKKRR [peptide 172] | 0% |
| FNLMLMECSICNEII [peptide 137] | 0.24% |

| Binder | Intensity (%) |
| --- | --- |
| EEEGKFNLMLMECSI [peptide 136] | 0% |
| TRCRKCEACLRTECG [peptide 123] | 97.3% |
| SLPENKKCVPEGIED [peptide 106] | 3.77% |
| TWPKKTPKNRAVGRP [peptide 115] | 0% |
| EGVKNVLKEHADDDP [peptide 110] | 0% |
| KLAANRTTAGARRRR [peptide 120] | 0% |
| CWECPKCNHAGKTGK [peptide 144] | 0% |
| ADDDPSLAITGVPVV [peptide 112] | 0% |
| KKCVPEGIEDPQALL [peptide 107] | 0% |
| GSSSHLSPRPPLGSS [peptide 166] | 0.84% |
| EDRMALANKPLRRFK [peptide 176] | 0% |
| SLAITGVPVVTWPKK [peptide 113] | 1.55% |
| YEKPQELSGRKRASS [peptide 162] | 0% |
| EDKLFRKKRRSWKNA [peptide 173] | 0% |
| RKKRKYEKPQELSGR [peptide 161] | 0% |
| EEKLRSQLYQGDFVH [peptide 15] | 0% |
| EVSAKWTHLTEFELK [peptide 101] | 2.69% |
| CIAPVLPHTAVCLVC [peptide 131] | 100% |
| DENEDLSDVEEIVSV [peptide 11] | 0% |
| LSDVEEIVSVRGFSL [peptide 12] | 0.13% |
| GSPATEVSAKWTHLT [peptide 100] | 0% |
| TPKNRAVGRPKGKLG [peptide 116] | 0% |
| GVPVVTWPKKTPKNR [peptide 114] | 0% |
| QEPAKRRSECEEAPR [peptide 153] | 41.6% |

| Binder | Intensity (%) |
| --- | --- |
| CNEIIHPGCLKIKES [peptide 139] | 85.1% |
| WTHLTEFELKGLKAL [peptide 102] | 0% |
| YFQQQLKPGKEDKLF [peptide 171] | 0% |
| VCLVCGEAGKEDTVE [peptide 133] | 12% |
| LSPRPPLGSSLSPWW [peptide 167] | 0% |
| PASAVKLAANRTTAG [peptide 119] | 0% |
| GLKALVEKLESLPEN [peptide 104] | 8.01% |
| DRQRYDENEDLSDVE [peptide 10] | 0% |
| GEAGKEDTVEEEEGK [peptide 134] | 0% |
| LRRKSDDVHLRKKRK [peptide 159] | 0% |
| QKMNRDNKEGQEPAK [peptide 151] | 100% |
| VLKEHADDDPSLAIT [peptide 111] | 0.99% |
| RSSLTYFQQQLKPGK [peptide 170] | 2.26% |
| EGIEDPQALLEGVKN [peptide 108] | 0% |
| MAGPQMGGSAEDHPP [peptide 1] | 0.25% |
| EGVVNDELPNCWECP [peptide 142] | 100% |
| RRSDEHSKKVPPDGL [peptide 156] | 0% |
| MECSICNEIIHPGCL [peptide 138] | 26.8% |
| CEACLRTECGECHFC [peptide 124] | 0% |
| EFELKGLKALVEKLE [peptide 103] | 4.44% |
| HPGCLKIKESEGVVN [peptide 140] | 0% |
| FGGPGRMKQSCIMRQ [peptide 128] | 0% |
| SWKNAEDRMALANKP [peptide 175] | 0% |
